Reference: US20230031280A1, “GLP-2 FUSION POLYPEPTIDES AND USES FOR TREATING AND PREVENTING GASTROINTESTINAL CONDITIONS” (SHIRE-NPS PHARMACEUTICALS, INC., priority 2017, published 2023)

How the values were obtained:
[1] = Projection of intravenous and subcutaneous PK parameters for humans; set-up: species or system human
Experimental: While a dose of 30 μg/kg once weekly (QW) is projected from the cynomolgus monkey PK data, the dose should be ten times higher (300 μg/kg) to adjust for the difference in in vivo potency.

[2] = target: T1, hFcRn (extracellular domain of the FcRN) (Homo sapiens, UniProt P55899); assay: FcRn binding by surface plasmon resonance (Biacore)
T1 construct: made in house
T1 sequence (P55899 24-297 limits assumed): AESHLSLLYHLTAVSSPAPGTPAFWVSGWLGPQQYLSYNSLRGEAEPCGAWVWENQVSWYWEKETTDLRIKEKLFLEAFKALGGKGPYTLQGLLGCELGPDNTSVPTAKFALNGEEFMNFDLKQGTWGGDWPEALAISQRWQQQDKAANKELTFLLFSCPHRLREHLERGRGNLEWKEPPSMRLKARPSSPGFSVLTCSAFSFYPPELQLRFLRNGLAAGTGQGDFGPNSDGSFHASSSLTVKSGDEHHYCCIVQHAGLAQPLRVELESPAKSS
T1 sequence (P61769 21-119 partner): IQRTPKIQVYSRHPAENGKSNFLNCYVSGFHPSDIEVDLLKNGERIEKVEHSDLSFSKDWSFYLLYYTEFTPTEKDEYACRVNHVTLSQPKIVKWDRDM
Source text: Binding to the Fc neonatal receptor (FcRN) allows for recycling of the molecules and leads to an extended in vivo serum half-life of the Fc fusion proteins. Recycling occurs as the molecules are passively taken into the cells and the pH of the endosomes is lower. That leads to binding of the Fc portion of the molecule to the FcRN. When the FcRN recycles back to the surface of the cell, the pH is then neutral and the protein is released back into the serum.
Binding to the extracellular domain of the FcRN was measured by surface plasmon resonance (SPR) using a Biacore system. Direct immobilization with FcRn was achieved via amine coupling of a CM5 chip with FcRn under the following conditions: • i) hFcRn (expressed and purified in house) is diluted in Acetate buffer pH 5.0 to 5 μg/mL. • ii) Immobilize 5 μg/mL of FcRn with target of 500 RU on CM5 chip in PBS pH 7.0 • iii) Final response 454 RU • iv) Running buffer: PBS-P+, pHed to 5.5
The kinetic binding study was done using the following protocol. Samples were diluted in PBS-P+ to 50, 25, 12.5, 6.25, 3.125, 1.56, 0.78, 0.39, 0 nM. The parameters were set as follows: • i) Association and Dissociation 300 s at Flow rate 30 μL/min • ii) Regeneration with 25 mM Tris, 150 mM NaCl pH 8.0 40 s at 60 μL/min
A measurement of the binding of the GLP-2 peptibodies to the Fc neonatal receptor (FcRN) was undertaken at pH 5.5 and pH 7.4.

[3] = Rat pharmacokinetics, intravenous dosing; format: in vivo, Sprague-Dawley rats; settings: single dose 1 mg/ml
Experimental: (§1) In the rat, four pharmacokinetic parameters were measured for Gattex® (a GLP-2 peptide having the A2G mutation): CL, Vc, Vt and Q. The same pharmacokinetic parameters were also measured for GLP-2 peptibodies A, B, E, J, K, L, M, O and P. The data is shown in Table 4. Male Sprague-Dawley rats (3 animals per group) were injected intravenously either via a jugular vein or tail vein catheter. A singles dose of test article was injected at a dose level of 1 mg/ml. The test articles were formulated in PBS pH 7.4 at a concentration of Blood samples were taken 0.083, 0.167, 0.33, 0.5, 1, 2, 6, 24, 48, 72, 120, 168, 240, and 336 hours post dose. Blood samples were collected into heparinized tubes and centrifuged for 5 minutes at 2000 xg within 10 minutes of collection. 100 μL of plasma were transferred to a 1.5 ml Eppendorf tube containing 2 μL of 50 mM PMSF. After mixing, the plasma samples were frozen at −80° C. until analysis.

[4] = Rat pharmacokinetics, subcutaneous dosing; format: in vivo, Sprague-Dawley rats; settings: single dose 1 mg/ml
Experimental: as §1, with “5.” for “4.”, “subcutaneously into the intra-scapular region of the animal.” for “intravenously either via a jugular vein or tail vein catheter.”, “[…]” for “1.5”, “mixing” for “mixing,”, “analysis. Meso Scale Discovery (MSD) ELISA was undertaken to assay for the concentration of the GLP-2 peptibodies.” for “analysis.”
A sandwich immunoassay was developed using either an anti-Human IgG1 Fc antibody or an anti-human albumin antibody for capture of the peptibody and a sulfotag labeled anti GLP-2 antibody for detection.

[5] = target: T2, human GLP-2R (Homo sapiens, UniProt O95838); assay: cAMP Hunter eXpress GLP2R CHO-K1 GPCR assay; format: cell-based
T2 construct: host or cells: CHO-K1
T2 sequence (O95838 1-553): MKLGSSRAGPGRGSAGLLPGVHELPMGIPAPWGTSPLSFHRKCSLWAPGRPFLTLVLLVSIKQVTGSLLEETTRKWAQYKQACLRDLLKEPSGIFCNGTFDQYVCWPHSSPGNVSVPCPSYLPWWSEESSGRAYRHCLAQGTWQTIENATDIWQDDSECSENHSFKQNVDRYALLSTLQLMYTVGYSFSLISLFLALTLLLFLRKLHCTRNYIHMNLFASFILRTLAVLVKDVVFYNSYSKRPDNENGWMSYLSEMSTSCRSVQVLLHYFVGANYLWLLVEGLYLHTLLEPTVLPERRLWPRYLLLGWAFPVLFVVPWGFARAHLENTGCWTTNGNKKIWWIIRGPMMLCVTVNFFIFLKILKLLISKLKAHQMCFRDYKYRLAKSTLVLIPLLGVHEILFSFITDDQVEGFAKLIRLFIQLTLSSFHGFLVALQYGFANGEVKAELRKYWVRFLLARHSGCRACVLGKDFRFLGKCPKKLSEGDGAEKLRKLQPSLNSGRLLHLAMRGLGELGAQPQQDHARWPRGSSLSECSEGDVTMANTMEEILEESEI
Experimental: The cAMP Hunter™ assay is based on enzyme fragment complementation (EFC). In EFC assay, the enzyme donor is fused to cAMP. Increased intracellular cAMP due to GLP2R activation competes with ED-cAMP for antibody. Unbound ED-cAMP complements the enzyme acceptor to form active beta galactosidase, which subsequently produces a luminescent signal.
The CHO-K1 cell line used is overexpressing human GLP-2R (Genbank accession number NM004246.1). […] Their activities were assayed via measurement of the concentration of cAMP in the media.

For “GLP-2 peptibody K: GLP-2[A2G]-GGGGSGGGGSGGGGS linker-IgG1 Fc (LALA) with C-terminal lysine; SEQ ID NO: 10”, the Vc [1] was 0.0385 L/kg, the Vt [1] was 0.0361 L/kg and the ka [1] was 1.40 day⁻¹. For the same substance, the “CL (value in parentheses)” value ([1]; exponent on CL 0.85, monkey 3.5 kg, human 70 kg) was 0.642 mL/h/kg, the CL ([1]; first value of cell) was 1.01 mL/h/kg and the F ([1]; first value of cell) was 86%. The Q ([1]; first value of cell) was 2.35 mL/h/kg, the “F (value in parentheses)” value ([1]; value in parentheses) was 60% and the “Q (value in parentheses)” value ([1]; value in parentheses) was 1.5 mL/h/kg. For the same substance, the Kd ([2]; pH 5.5) was 1.95 nM, the “FcRN KD at pH 7.4” value ([2]; pH 7.4) was “No binding in range tested” and the CL [3] was 2.24 mL/h/kg. The Q [3] was 2.54 mL/h/kg, the Vc [3] was 0.0422 L/kg and the Vt [3] was 0.0464 L/kg. The CL [4] was 2.83 mL/h/kg, the Vc [4] was 0.114 L/kg and the ka [4] was “K (0.62 ka/day,”. The “reduction of activity vs GLP-2[A2G]” value [5] was “about five-fold”.
